# Laboratory results taken from PMC10939263.
# Numbering of substitutions follows the chain as printed. In names and notes the source's numbering stands.
# B1: SKAP1 ΔLink1PH deletion mutant, N2-fused (natural protein)
# chain: MQAAALPEEIRWLLEDAEEFLAEGLRNENLSAVARDHRDHILRGFQQIKARYYWDFQPQGGDIGQDDLSSLTIPYEEDEEEEEKEETYDDIDGFDSPSCGSQCRPTILPGSVGIKEPTEEKEEEDIYEVLPDEEHDLEEDESGTRRKGVDYASYYQGLWDCHGDQPDELSFQRGDLIRILSKEYNMYGWWVGELNSLVGIVPKEYLTTAFEVEER
# B2: SKAP1 ΔPH deletion mutant, N2-fused (natural protein)
# chain: MQAAALPEEIRWLLEDAEEFLAEGLRNENLSAVARDHRDHILRGFQQIKARYYWDFQPQGGDIGQDSSDDNHSGTLGLSLTSDAPFLSDYQDEGMEDIVKGAQELDDLSSLTIPYEEDEEEEEKEETYDDIDGFDSPSCGSQCRPTILPGSVGIKEPTEEKEEEDIYEVLPDEEHDLEEDESGTRRKGVDYASYYQGLWDCHGDQPDELSFQRGDLIRILSKEYNMYGWWVGELNSLVGIVPKEYLTTAFEVEER
# B3: SKAP1 ΔSH3 mutant, N2-fused (domain or fragment)
# chain: MQAAALPEEIRWLLEDAEEFLAEGLRNENLSAVARDHRDHILRGFQQIKARYYWDFQPQGGDIGQDSSDDNHSGTLGLSLTSDAPFLSDYQDEGMEDIVKGAQELDNVIKQGYLEKKSKDHSFFGSEWQKRWCVVSRGLFYYYANEKSKQPKGTFLIKGYGVRMAPHLRRDSKKESCFELTSQDRRSYEFTATSPAEARDWVDQISFLLKDLSSLTIPYEEDEEEEEKEETYDDIDGFDSPSCGSQCRPTILPGSVGIKEPTEEKEEEDIYEVLPDEEHDLEEDESGTRRK
# B4: SKAP1 Link2SH3 mutant, N2-fused (domain or fragment)
# chain: SSLTIPYEEDEEEEEKEETYDDIDGFDSPSCGSQCRPTILPGSVGIKEPTEEKEEEDIYEVLPDEEHDLEEDESGTRRKGVDYASYYQGLWDCHGDQPDELSFQRGDLIRILSKEYNMYGWWVGELNSLVGIVPKEYLTTAFEVEE
# B5: SKAP1 DomDIM mutant, N2-fused (domain or fragment)
# chain: MQAAALPEEIRWLLEDAEEFLAEGLRNENLSAVARDHRDHILRGFQQIKARYYWDFQPQGGDIGQDSSDDNHSGTLGLSLTSDAPFLSDYQDEGMEDIV
# B6: SKAP1 D120K mutant, N2-fused (natural protein)
# chain: MQAAALPEEIRWLLEDAEEFLAEGLRNENLSAVARDHRDHILRGFQQIKARYYWDFQPQGGDIGQDSSDDNHSGTLGLSLTSDAPFLSDYQDEGMEDIVKGAQELDNVIKQGYLEKKSKKHSFFGSEWQKRWCVVSRGLFYYYANEKSKQPKGTFLIKGYGVRMAPHLRRDSKKESCFELTSQDRRSYEFTATSPAEARDWVDQISFLLKDLSSLTIPYEEDEEEEEKEETYDDIDGFDSPSCGSQCRPTILPGSVGIKEPTEEKEEEDIYEVLPDEEHDLEEDESGTRRKGVDYASYYQGLWDCHGDQPDELSFQRGDLIRILSKEYNMYGWWVGELNSLVGIVPKEYLTTAFEVEER
# B7: SKAP1 W333K mutant, N2-fused (natural protein)
# chain: B6 chain with K120D, W333K
# Target: C1-fused SRC kinases
# Assay: split reporter (BiFC, NanoBiT); Gaussia princeps luciferase complementation assay in human HEK293T cells; Gluc2 at the N terminus of SKAP1 or SKAP2 (N2), Gluc1 at the N terminus (N1) or C terminus (C1) of the SRC kinase; 100 ng plasmid pair, PEI; luminescence read in lysate one day later; normalized luminescence ratio (NLR), given relative to wild type or to SKAP2
row,"wild-type normalized NLR, mean over SRC kinases",Binder
1,0.96,B1
2,0.87,B2
3,2.53,B3
4,0.51,B4
5,0.32,B5
6,1.49,B6
7,1.24,B7

# Target: N1-fused SRC kinases
# Assay: as above
row,"wild-type normalized NLR, mean over SRC kinases",Binder
1,1.57,B1
2,1.35,B2
3,1.51,B3
4,0.29,B4
5,0.11,B5
6,1.17,B6
7,1.16,B7
